± gives the uncertainty stated by the source.
Assay: self-splicing fitness, log relative to wild type (ln ratio); higher = more splicing; Tetrahymena group I intron in knt gene, E. coli kanamycin selection, DiMSum; sequences stand for … in CUCUCU…GGAGGGAAAAGUUAUCAGGCAUGCACCUGGUAGCUAGUCUUUAAACCAAUAGAUUGCAUCGGUUUAAAAGGCAAGACCGUCAAAUUGCGGGAAAGGGGUCAACAGCCGUUCAGUACCAAGUCUCAGGGGAAACUUUGAGAUGGCCUUGCAAAGGGUAUGGUAAUAAGCUGACGGACAUGGUCCUAACCACGCAGCCAAGUCCUAAGUCAACAGAUCUUCUGUUGAUAUGGAUGCAGUUCACAGACUAAAUGUCGGUCGGGGAAGAUGUAUUCUUCUCAUAAGAUAUAGUCGGACCUCUCCUUAAUGGGAGCUAGCGGAUGAAGUGAUGCAACACUGGAGCCGCUGGGAACUAAUUUGUAUGCGAAAGUAUAUUGAUUAGUUUUGGAGUACUCGUGGUCG
In short: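 The eight P1ex-region nucleotides of an intron in the knt kanamycin-resistance gene on pET-22b(+) were all randomised and the library put into E. coli BL21(DE3). Six replicate transformations were grown overnight at 37°C or 30°C on LB agar with or without 25 μg/mL kanamycin, together with 100 μg/mL carbenicillin, 50 μM IPTG and 0.2% rhamnose. Colonies were pooled and amplicon-sequenced on an Illumina HiSeq 2500. Fitness from DiMSum is the error-weighted combination of wild-type-normalised replicate fold changes, kanamycin over none.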

Sequence	self-splicing fitness (ln) (30 °C)	self-splicing fitness (ln) (37 °C)
GUUUAGCAAUAUUACGCGUG	-1.1 ± 0.071	-0.806 ± 0.082
GGUUAGCAAUAUUACGUUUC	-3.04 ± 0.21	-0.645 ± 0.18
AAUGAGCAAUAUUACGCUCG	-2.31 ± 0.25	-0.585 ± 0.18
CGACAGCAAUAUUACGUGAG	-0.627 ± 0.052	-0.333 ± 0.074
ACUAAGCAAUAUUACGCAAG	-1.79 ± 0.074	-1.49 ± 0.096
CGGCAGCAAUAUUACGAUAU	-4.27 ± 0.23	-1.51 ± 0.098
UCCUAGCAAUAUUACGGCCU	-2.37 ± 0.34	-2.29 ± 0.37
AUUGAGCAAUAUUACGGUAA	-3.25 ± 0.22	-2.53 ± 0.2
AGUUAGCAAUAUUACGAAAG	-4.09 ± 0.21	-2.82 ± 0.24
AUUAAGCAAUAUUACGUAGG	-2.34 ± 0.18	-1.81 ± 0.29
CACUAGCAAUAUUACGCCUU	-1.4 ± 0.27	-1.19 ± 0.16
CUUUAGCAAUAUUACGAGAG	-4.26 ± 0.34	-2.03 ± 0.28
AUGAAGCAAUAUUACGGAAG	-1.17 ± 0.1	-0.408 ± 0.16
AUAGAGCAAUAUUACGUAGA	-3.41 ± 0.25	-2.52 ± 0.24
GUUCAGCAAUAUUACGAAUG	-0.469 ± 0.076	0.0253 ± 0.11
GGGCAGCAAUAUUACGUGGU	-2.88 ± 0.17	-1.58 ± 0.13
CAUCAGCAAUAUUACGAUAA	-1.46 ± 0.092	-0.079 ± 0.088
CAGAAGCAAUAUUACGGCCU	-1.29 ± 0.13	-1.82 ± 0.23
GGCAAGCAAUAUUACGGAGA	-2.37 ± 0.24	-2.22 ± 0.27
AGUCAGCAAUAUUACGCAGG	-2.85 ± 0.26	-2.92 ± 0.43
UCCUAGCAAUAUUACGCGAC	-3.46 ± 0.32	-1.49 ± 0.31
UGACAGCAAUAUUACGAUUU	-0.733 ± 0.094	-0.108 ± 0.1
CCUUAGCAAUAUUACGCAAA	–	-2.89 ± 0.34
UCCGAGCAAUAUUACGCCAG	-3.95 ± 0.28	-2.24 ± 0.31
GAAUAGCAAUAUUACGUUCG	-1.16 ± 0.13	-0.541 ± 0.17
CCCUAGCAAUAUUACGUCAU	-2.27 ± 0.13	-3.11 ± 0.24

Sequence	self-splicing fitness (ln) (30 °C)	self-splicing fitness (ln) (37 °C)
GUUCAGCAAUAUUACGGGGG	-1.52 ± 0.13	-1.4 ± 0.16
UGAUAGCAAUAUUACGGUCG	-0.332 ± 0.098	-0.477 ± 0.1
CUUAAGCAAUAUUACGGCGC	-3.46 ± 0.37	-2.7 ± 0.28
GAGUAGCAAUAUUACGCAAA	-2.45 ± 0.44	-1.63 ± 0.22
GCUGAGCAAUAUUACGAACA	-3.44 ± 0.36	-2.89 ± 0.38
AUUCAGCAAUAUUACGAGGC	-3.49 ± 0.19	-1.51 ± 0.19
GUUCAGCAAUAUUACGGUUA	-0.817 ± 0.098	-0.352 ± 0.082
CCCCAGCAAUAUUACGACCU	-3.23 ± 0.15	-2.32 ± 0.23
GUAAAGCAAUAUUACGGAUA	-2.72 ± 0.16	-0.67 ± 0.12
CAGGAGCAAUAUUACGGCGA	-2.73 ± 0.29	-3.49 ± 0.29
GACAAGCAAUAUUACGGCGA	-0.213 ± 0.074	0.21 ± 0.085
GGCCAGCAAUAUUACGAGAC	-3.29 ± 0.25	-2.77 ± 0.28
UCAGAGCAAUAUUACGAGUU	-2.22 ± 0.2	-0.115 ± 0.27
GAAGAGCAAUAUUACGUCCU	-2.59 ± 0.48	-0.861 ± 0.29
GUUUAGCAAUAUUACGACCC	-0.68 ± 0.19	-0.133 ± 0.24
AGAAAGCAAUAUUACGGUCG	-0.278 ± 0.07	-0.0273 ± 0.092
GCAAAGCAAUAUUACGAAAC	-1.75 ± 0.092	-0.783 ± 0.11
GAGUAGCAAUAUUACGAGAC	-3.25 ± 0.43	-2.95 ± 0.48
UAGUAGCAAUAUUACGGACU	-0.0123 ± 0.18	0.484 ± 0.15
GGGAAGCAAUAUUACGACAC	-0.539 ± 0.25	0.0269 ± 0.38
AUGCAGCAAUAUUACGAAUA	-2.68 ± 0.2	-1.68 ± 0.16
CGAGAGCAAUAUUACGCAUG	-2.98 ± 0.12	-2.02 ± 0.12
CGCUAGCAAUAUUACGCGGC	-3.25 ± 0.35	-3.1 ± 0.29
CAAUAGCAAUAUUACGGCUC	-1.08 ± 0.15	-0.901 ± 0.23
CAACAGCAAUAUUACGGGGC	-3.71 ± 0.16	-3.4 ± 0.17
UGUGAGCAAUAUUACGUCAC	-3.91 ± 0.47	–

Sequence	self-splicing fitness (ln) (30 °C)	self-splicing fitness (ln) (37 °C)
GAAGAGCAAUAUUACGCUAG	-4.24 ± 0.37	-1.13 ± 0.21
GGCAAGCAAUAUUACGUAUG	-2 ± 0.092	-1.74 ± 0.1
UGCUAGCAAUAUUACGUACC	–	0.784 ± 0.4
GAAAAGCAAUAUUACGAGCC	-1.38 ± 0.19	-0.409 ± 0.18
GGCCAGCAAUAUUACGUGAG	-2.13 ± 0.08	-1.49 ± 0.092
GAUCAGCAAUAUUACGUAGG	-1.87 ± 0.1	-1.48 ± 0.14
AGGGAGCAAUAUUACGGGGC	–	-0.893 ± 0.36
UUGUAGCAAUAUUACGUAAC	–	-2.12 ± 0.43
AGGAAGCAAUAUUACGCAUA	-2.39 ± 0.18	-1.15 ± 0.16
CGGGAGCAAUAUUACGAACU	–	-1.25 ± 0.45
GGGCAGCAAUAUUACGAAGU	-1.95 ± 0.14	-0.794 ± 0.21
CGGAAGCAAUAUUACGAACA	-1.18 ± 0.12	-0.826 ± 0.13
CCGUAGCAAUAUUACGGUGC	-2.96 ± 0.16	-1.93 ± 0.16
UGGUAGCAAUAUUACGCAUC	–	-3.68 ± 0.46
UAGUAGCAAUAUUACGGCUC	-1.01 ± 0.098	0.206 ± 0.14
ACCCAGCAAUAUUACGCCCU	-0.0641 ± 0.052	0.262 ± 0.091
CGCGAGCAAUAUUACGCACA	-2.3 ± 0.19	-1.16 ± 0.18
GAGCAGCAAUAUUACGGCAA	-0.276 ± 0.062	-0.126 ± 0.072
UGCUAGCAAUAUUACGUGCU	-2.31 ± 0.16	-2 ± 0.17
AACCAGCAAUAUUACGAUAG	-2.87 ± 0.16	-2.11 ± 0.15
CAUUAGCAAUAUUACGCACG	-0.832 ± 0.12	0.325 ± 0.14
GUAAAGCAAUAUUACGUGGG	-3.28 ± 0.18	-2.91 ± 0.14
ACUUAGCAAUAUUACGAACA	-1.35 ± 0.2	-0.724 ± 0.19
CAAGAGCAAUAUUACGUCAU	-4.3 ± 0.24	-3.57 ± 0.17
GUAUAGCAAUAUUACGCCUC	-1.32 ± 0.21	-0.746 ± 0.27

— the supplement of paper PMC7877785
